In this test the target is mouse PIEZO1-S2472E mutant (mouse) (UniProt E2JF22). As to the kind of experiment: cryo-EM structure.

One substance from publication doi:10.1101/2023.09.28.559900 can be followed below.

With “mouse PIEZO1-S2472E mutant, E2JF22 1-2547”, the stoichiometry N (commonly a count of units in the complex or per binding partner) was determined as 3.
